In the supplement of paper PMC12636428:

These sequences were tested on Saccharomyces cerevisiae (assay: transcriptional activation domain activity (GFP:mCherry ratio, weighted mean of sorted bins, harmonized to initial dataset scale) (arbitrary fluorescence ratio units); higher = stronger transcriptional activation). Conditions: beta-estradiol 1 µM; induction time 4 h.
Method in brief: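 After a 1:5 dilution into SC with 1 uM beta-estradiol and 4 hours at 30 °C, yeast diploids carrying a GFP reporter and URA3-integrated barcoded tiles were sorted into 8 bins by GFP:mCherry ratio. The tiles were fused to an estradiol-inducible synthetic transcription factor. Barcodes were sequenced, tiles below 50 reads were discarded, and activation activity was taken as the read-weighted mean of bin median fluorescence, averaged across barcodes and linearly mapped onto the initial dataset scale.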

Sequence | transcriptional activation domain activity
MYCMRYFAPLFLLPFPDAPPFFVVLSLISFFLHQKPCIYCVFLLLALFSSTCY | 61400
RRRRAKSRDPERVRERSERRASRSPEKKDKSARSKSRLGRLAAGAAAAGAAAI | 42800
EEDNHSGDDNEDDHDSSGVDDDHGGGGDEDDGDGGEGDGGDVMQLYFIHNIIL | 37400
TGWCCLLMSIFSFNHAVLFVAFIFPNGVSCRKLLWNAMIGYVISLECSNLLLL | 60800
KARQEKQPPMTQKDLATKVNEKPSVINDYESGRAVPNQQVLSKLERALQVKLR | 22500
SPLPPPSPFFPLQPLSLFHLSPLFSPVSLHFPCFSPFPPPLPPFFLPLLPLLS | 60500
LCREVIIGGILGGILVFLVISLFFLIGHFFLFFVVLFLLLFNTTLCSLLVEVL | 18900
AAARAPHVAPAPPDARPKSKKRKSSSPDDGRAPAKSRRLSPARAAPAKPKHRR | 12300
LLIQPLIQGFCYLMQFWISFFSSLFCFVTGDIPILLGILIPFYCLFFFHFFLF | 58700
CIKATLAPDSAIFVGPSALIFHVLQLSILIILLLKTGGPGSGKGTQCTRLAKD | 29600
MFLPIVPFMLMLLRLLRLLRLLMLLMLLMLLPLFLFLFLLVMLCLFPLILLLL | 56200
CYWKAKAPPYVLPMLILSKRLHSIFVLRCFNDCFAVLFLWLAILCLQRRSWQL | 67900
QRNDARLIPGIKYLQLVLGRVRCCREIIAILARNGHRLPKGMLPTLVRLWLLM | 35800
MHPILSCLVSIVCPIMHILLLAVLLFLNTLSRLILAFTYTTFSLFVFSVQLTP | 71500
MLVRISLFLTLPFTLNLLPTMDLCCIGNVKILNYLSKCIHGSLCNHSIILIRL | 56300
RKNNKREVKVEAREPHHKGRKNNKREVEAVEEVEARDPHHKGRKNNNREVEVE | 28300
LRQRILYIYKWFLRKIYPSINAAYYLSILSFSLMYLFDNTKYSNPFLWLIHTR | 63900
QDALVELFGHMENFFRRLEKHIEVRPTTAMTDIIVKIMVEVLSILGIVTKEIE | 41200
KGKAAKSGWDDDEDEKKKEEGEGEGGDGGDKSGDIGAGGDGDKKDEASGNADG | 27500

Sequence | transcriptional activation domain activity
MIHVPLIIFYIILNLFVAYLCLLIFSYYYRMIAQLLYNQCMIQMQPIIHQIKE | 53500
NGPQGQQQQGQRAGQRGQGAGAGEAGQQNGQQGQQAGQRGRGTQAGAAGQQNG | 20600
FSDGELSDDALDKQGKKEKKRKAKAIESGDATPVESKPEKERKKKKSKPEAET | 31100
AHACIVLVVCEIDKTLGHSKHLLMIWLMRLLLLILNIMTIVGLFWSFLKCLDV | 70900
VHPIVCLVVCLLGHIWSFHVYYCLLKIGLLFSLFPLVRLARCAIFYRRCFSYF | 40200
LFYFTFSFFVRTAFITLPIYLFWFLYSYFWNYWTSYFPWNDLFLPAWPISRTR | 39300
MQMIFFLSLTFLILLFFFFFFFSSFPFPFTIITFYISNPLFYFVTLLVSITYF | 19100
MGLGVLYHLSLLFPFLFFFLSLLFFSLLSSSFFLLWLFPISCLGFIVLFWTGS | 22200
MGRVVGVGSFYVWICHFFYIFSFFFSPMMNWTGSGLVGCVMALLYFILSFSFS | 46200
QPPPPPGRKRKKAENGEPSTPAEPRRLRRSHEACARCRSKKIKVSTQASAVIL | 53600
MIITFYTFFSFFPFFISFSLSLFSLRYFFFFFSFLSLSFFFFLFFLILIHLFL | 14400
MKTINILTTPPLHIFFSTPIVYSLFLLLNFFPIFFFFFFFFLYSLPFFFFIVA | 52100
LSPHLPPHLPPRLYFAIDSDLFLLLLLPPFDICFYLSSLLVLIFFIYLLLEVH | 30600
LVHFILTGSDFIWFFSYTPEAVALYLFLVEWSKLNYFWVALMYIWNVMPLFLL | 63600
SQVIKILTLLFFFLNLLFFVLICAATVARYCMFPQLWPIMLNHPSQSLFIGAF | 60600
ILNVTVRLNFLTFVLQYLMDTDYLSYYFTPLVSFWFLAIWIIMYAGHTWNKIP | 67300
MDTLSSSFAHILCIFFYLHPFLLFFSFSLFPFFVFATPATRTGVRLFYFFFLF | 41600
LSEPMAKNPYYYLCVLARIVVVKFAMLLRIIYGVYVPIYTYSAYCFLTDITLF | 62900
